The target in one test is T1, human Ambra-1 (human, UniProt Q9C0C7 1-1298).
T1 construct: the protein stood in tissue sections (immunohistochemistry)
T1 sequence: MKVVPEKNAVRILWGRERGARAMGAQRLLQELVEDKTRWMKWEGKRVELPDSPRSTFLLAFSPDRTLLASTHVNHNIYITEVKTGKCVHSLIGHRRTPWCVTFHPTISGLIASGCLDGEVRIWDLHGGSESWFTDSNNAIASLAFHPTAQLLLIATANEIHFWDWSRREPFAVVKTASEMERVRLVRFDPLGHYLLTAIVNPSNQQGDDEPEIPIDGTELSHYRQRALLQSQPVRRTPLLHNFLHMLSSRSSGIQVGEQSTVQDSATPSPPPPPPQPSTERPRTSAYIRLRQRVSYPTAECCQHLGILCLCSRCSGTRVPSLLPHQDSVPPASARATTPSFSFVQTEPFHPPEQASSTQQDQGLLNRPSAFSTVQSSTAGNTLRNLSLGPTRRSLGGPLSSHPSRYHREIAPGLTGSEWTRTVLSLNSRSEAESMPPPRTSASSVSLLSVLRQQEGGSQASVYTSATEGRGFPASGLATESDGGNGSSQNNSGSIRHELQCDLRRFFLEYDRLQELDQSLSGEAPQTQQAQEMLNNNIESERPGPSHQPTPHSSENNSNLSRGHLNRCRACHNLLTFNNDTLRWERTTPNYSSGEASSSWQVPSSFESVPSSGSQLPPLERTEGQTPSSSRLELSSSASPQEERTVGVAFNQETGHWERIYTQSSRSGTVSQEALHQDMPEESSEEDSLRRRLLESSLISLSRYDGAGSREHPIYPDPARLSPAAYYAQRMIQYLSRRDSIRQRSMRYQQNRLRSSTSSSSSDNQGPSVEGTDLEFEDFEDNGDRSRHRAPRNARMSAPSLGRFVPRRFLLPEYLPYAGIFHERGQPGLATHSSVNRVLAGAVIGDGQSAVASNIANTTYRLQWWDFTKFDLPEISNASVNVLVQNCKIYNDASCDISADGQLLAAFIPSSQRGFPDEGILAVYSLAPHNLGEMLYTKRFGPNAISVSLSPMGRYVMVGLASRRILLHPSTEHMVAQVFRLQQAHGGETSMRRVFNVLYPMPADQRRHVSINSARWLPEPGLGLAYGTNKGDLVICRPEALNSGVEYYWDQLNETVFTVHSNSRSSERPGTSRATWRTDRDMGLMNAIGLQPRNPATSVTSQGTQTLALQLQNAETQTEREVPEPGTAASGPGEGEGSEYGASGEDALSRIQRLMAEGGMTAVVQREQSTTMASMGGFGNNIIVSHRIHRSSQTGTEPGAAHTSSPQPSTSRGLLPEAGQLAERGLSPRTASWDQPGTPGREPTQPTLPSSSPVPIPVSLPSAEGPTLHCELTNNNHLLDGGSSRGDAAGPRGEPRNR
Description: automated immunohistochemistry (Ventana Benchmark XT), chimeric mouse IgG1 format.

In test [1] the target is T2, N1-CD33-His6 (the ectodomain of human CD33 fused to the N1 domain of the g3p filamentous phage M13) (filamentous phage M13; human, UniProt P20138 18-259).
T2 construct: extracellular domain; not shown: N1 domain of g3p of filamentous phage M13
T2 sequence (P20138 18-259, tags left off): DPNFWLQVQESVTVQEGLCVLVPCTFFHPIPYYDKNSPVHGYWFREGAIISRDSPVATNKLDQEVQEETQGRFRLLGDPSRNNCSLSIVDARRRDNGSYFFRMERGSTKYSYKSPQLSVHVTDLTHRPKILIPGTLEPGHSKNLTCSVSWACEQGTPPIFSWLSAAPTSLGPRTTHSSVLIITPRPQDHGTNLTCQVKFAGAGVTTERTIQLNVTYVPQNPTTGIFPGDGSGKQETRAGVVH
Description: QC ELISA of the chimeric human/mouse IgG1 antibody on immobilized control protein; signal over background. (In general: ELISA stands for enzyme-linked immunosorbent assay.)

Test [2] has as its target T3, Ambra-1 peptide (synthesized peptide to which anti-Ambra-1 antibodies were raised) (human, not fully specified).
T3 construct: Tested in ELISA in native and denatured form; also called Ambra-1 antigen
T3 peptide: CGGSSRGDAAGPRGEPRNR
Description: QC ELISA of the chimeric human/mouse IgG1 antibody on immobilized Ambra-1 peptide conjugates Amb1-TRF and Amb1-BSA; signal over background.

The target of test [3] is T2, N1-CD33-His6 (the ectodomain of human …). Description: QC ELISA, purified Fab on immobilized control protein; signal (x-fold) over background.
For test [4] the target is unchanged. Description: QC ELISA of the chimeric human/mouse IgG1 antibody on immobilized control protein; signal over background. This is another data set of the same source.

Ends that are not written are not given here.

B1: AbD33473 full length chimeric antibody against human Ambra-1 with an IgG1 mouse Fc region (antibody, V domains shown)
VH: EVQLVQSGAEVKKPGESLKISCKGSGYSFSSYWIHWVRQMPGKGLEWMGTIFPSRSYTTYSPSFQGQVTISADKSISTAYLQWSSLKASDTAMYYCARDTPSTALKSPFDYWGQGTLVTVSS
VL: DIVLTQPPSVSGAPGQRVTISCSGSSSNIGYNYVYWYQQLPGTAPKLLIYENNKRPSGVPDRFSGSKSGTSASLAITGLQAEDEADYYCSSWDSHSNSYVFGGGTKLTVLG
notes: also called recombinant monoclonal antibody AbD33473; HuCAL antibody AbD33473
As for B1, the binding result in the test with human Ambra-1 was “binds”; in test [1] it was “no binding”; in test [2], “binds”.

B2: HuCAL recombinant monoclonal antibody fragment against human Ambra-1, AbD33473.1, bivalent Fab (Fab-A-FH) (Fab)
heavy: EVQLVQSGAEVKKPGESLKISCKGSGYSFSSYWIHWVRQMPGKGLEWMGTIFPSRSYTTYSPSFQGQVTISADKSISTAYLQWSSLKASDTAMYYCARDTPSTALKSPFDYWGQGTLVTVSSASTKGPSVFPLAPSSKSTSGGTAALGCLVKDYFPEPVTVSWNSGALTSGVHTFPAVLQSSGLYSLSSVVTVPSSSLGTQTYICNVNHKPSNTKVDKKVEPKSRTPEMPVLENRAAQGDITAPGGARRLTGDQTAALRDSLSDKPAKNIILLIGDGMGDSEITAARNYAEGAGGFFKGIDALPLTGQYTHYALNKKTGKPDYVTDSAASATAWSTGVKTYNGALGVDIHEKDHPTILEMAKAAGLATGNVSTAELQDATPAALVAHVTSRKCYGPSATSEKCPGNALEKGGKGSITEQLLNARADVTLGGGAKTFAETATAGEWQGKTLREQAQARGYQLVSDAASLNSVTEANQQKPLLGLFADGNMPVRWLGPKATYHGNIDKPAVTCTPNPQRNDSVPTLAQMTDKAIELLSKNEKGFFLQVEGASIDKQDHAANPCGQIGETVDLDEAVQRALEFAKKEGNTLVIVTADHAHASQIVAPDTKAPGLTQALNTKDGAVMVMSYGNSEEDSQEHTGSQLRIAAYGPHAANVVGLTDQTDLFYTMKAALGLKDYKDDDDKHHHHHH
light: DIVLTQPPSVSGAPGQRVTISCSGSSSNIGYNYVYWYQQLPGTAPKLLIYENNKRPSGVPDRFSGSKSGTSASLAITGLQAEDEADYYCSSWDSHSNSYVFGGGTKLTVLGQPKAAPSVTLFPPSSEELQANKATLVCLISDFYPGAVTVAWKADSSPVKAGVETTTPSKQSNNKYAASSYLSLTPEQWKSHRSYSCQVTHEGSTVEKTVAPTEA
notes: domain: alkaline phosphatase dimerization domain
In the case of B2, the binding result in test [3] is recorded as “no binding”.

B3: AbD33047 full length chimeric antibody against human Loricrin with an IgG1 mouse Fc region (antibody, V domains shown)
VH: QVQLVQSGAEVKKPGASVKVSCKASGYTFNDYYIHWVRQAPGQGLEWMGVISPNSGKTNYAQKFQGRVTMTRDTSISTAYMELSRLRSEDTAVYYCARDLYPDSSAFDIWGQGTLVTVSS
VL: DIELTQPPSVSVSPGQTASITCSGDNLGDKYAHWYQQKPGQAPVLVIYDDNERPSGIPERFSGSNSGNTATLTISGTQAEDEADYYCQSYDSGNRVFGGGTKLTVLG
notes: also called recombinant monoclonal antibody AbD33047; HuCAL antibody AbD33047
On to B3, for which, in test [4], the binding result is listed as “no binding”.

The record behind these values is patent US20210396758A1 (AMLO BIOSCIENCES, published 2021).
